# Assay results published in the supplement of paper PMC10567573.
# B1: RPS21 (parent)
# chain: AEVSWEPGRREGCDICAGKAGCPI
# B2: MTMR15 (parent)
# chain: FSPDFTLRNTLKSTSEDSLVKQEC
# Variants of: B1
# Assay: protein stability index of a GFP-peptide fusion (GPS, HEK-293T) (PSI 1-6); higher = more stable
# Settings: c terminus: a fixed tail appended
# 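Also: lentivirally expressed fusions sorted by FACS into six bins by GFP to DsRed ratio, PSI derived from sequencing read proportions per bin multiplied by bin number.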
row,Variant,protein stability index
1,AEVSWEPGRREGVDICAGKAGCPI [C13V],5.29
2,AEVSWEPGRREGYDICAGKAGCPI [C13Y],3.84
3,AEVSWEPGRREGTDICAGKAGCPI [C13T],4.38
4,AEVSWEPGRRIGCDICAGKAGCPI [E11I],2.56
5,AEVSWEPGRRDGCDICAGKAGCPI [E11D],3.37
6,AEVSWEPGRRFGCDICAGKAGCPI [E11F],4.96

# Variants of: B2
# Assay: as above
# Settings: c terminus: a fixed tail appended
row,Variant,protein stability index
1,FSPDFTLRNTLKSTSEDSLPKQEC [V20P],2.44
2,FSPDFTLRNTLKSTSEDSLKKQEC [V20K],2.46
3,FSPDFTLRNTLKSTSEDSLMKQEC [V20M],2.29
4,FSPDFTLRNTLKSTSEDSLQKQEC [V20Q],2.06
5,FSPDFTLRNTLKSTSEDSLSKQEC [V20S],2.04
6,FSPDFTLRNTLKSTSEDSLNKQEC [V20N],2.2
7,FSPDFTLRNTLKSTSEDSLWKQEC [V20W],2.12
8,FSPDFTLRNTLKSTSEDSLRKQEC [V20R],2.21
9,FSPDFTLRNTLKSTSEDSLLKQEC [V20L],2.08
10,FSPDFTLRNTLKSTSEDSLYKQEC [V20Y],2
11,FSPDFTLRNTLKSTSEDSLTKQEC [V20T],2.01
12,FSPDFTLRNTLKSTSEDSLIKQEC [V20I],2.19
13,FSPDFTLRNTLKSTSEDSLVKSEC [Q22S],1.86
14,FSPDFTLRNTLKSTSEDSLVKVEC [Q22V],2
15,FSPDFTLRNTLKSTSEDSLVKLEC [Q22L],1.88
16,FSPDFTLRNTLKSTSEDSLVKKEC [Q22K],1.62
17,FSPDFTLRNTLKSTSEDSLVKAEC [Q22A],1.56
18,FSPDFTLRNTLKSTSEDSLVKIEC [Q22I],2.06
19,FSPDFTLRNTLKSTSEDSLVKEEC [Q22E],2.15
20,FSPDFTLRNTLKSTSEDSLVKHEC [Q22H],1.91
21,FSPDFTLRNTLKSTSEDSLVKCEC [Q22C],2.06
22,FSPDFTLRNTLKSTSEDSLVKNEC [Q22N],2.02

row,Variant,protein stability index
1,FSPDFTLRNTLKSTSEDSLVKDEC [Q22D],1.92
2,FSPDFTLRNTLKSTSEDSLVKREC [Q22R],1.72
3,FSPDFTLRNTLKSTSEDSLVKMEC [Q22M],1.65
4,FSPDFTLRNTLKSTSEDSLVKWEC [Q22W],2.08
5,FSPDFTLRNTLKSTSEDSLVKFEC [Q22F],2.65
6,FSPDFTLRNTLKSTSEDSLVKGEC [Q22G],2.31
7,FSPDFTLRNTLKSTSEDSLVKYEC [Q22Y],2.39
8,FSPDFTLRNTLKSTSEDSLVKTEC [Q22T],2.42
9,FSPDFTLRNTLKSTSEDSLVKPEC [Q22P],1.67
10,FSPDFTLRNTLKSTSEDSLVKQIC [E23I],1.72
11,FSPDFTLRNTLKSTSEDSLVKQMC [E23M],1.88
12,FSPDFTLRNTLKSTSEDSLVKQSC [E23S],2.27
13,FSPDFTLRNTLKSTSEDSLVKQQC [E23Q],2.3
14,FSPDFTLRNTLKSTSEDSLVKQDC [E23D],1.52
15,FSPDFTLRNTLKSTSEDSLVKQNC [E23N],1.58
16,FSPDFTLRNTLKSTSEDSLVKQHC [E23H],1.95
17,FSPDFTLRNTLKSTSEDSLVKQPC [E23P],2.04
18,FSPDFTLRNTLKSTSEDSLVKQGC [E23G],2.26
19,FSPDFTLRNTLKSTSEDSLVKQRC [E23R],2.42
20,FSPDFTLRNTLKSTSEDSLVKQAC [E23A],2.87
21,FSPDFTLRNTLKSTSEDSLVKQTC [E23T],1.75
22,FSPDFTLRNTLKSTSEDSLVKQCC [E23C],2.49

row,Variant,protein stability index
1,FSPDFTLRNTLKSTSEDSLVKQWC [E23W],2.59
2,FSPDFTLRNTLKSTSEDSLVKQFC [E23F],2.51
3,FSPDFTLRNTLKSTSEDSLVKQVC [E23V],1.94
4,FSPDFTLRNTLKSTSEDSLVKQYC [E23Y],1.84
5,FSPDFTLRNTLKSTSEDSLVKQLC [E23L],1.77
6,FSPDFTLRNTLKSTSEDSLVKQKC [E23K],1.61
7,FSPDFTLRNTLKSTSEDSLVEQEC [K21E],2.52
8,FSPDFTLRNTLKSTSEDSLVTQEC [K21T],2.1
9,FSPDFTLRNTLKSTSEDSLVAQEC [K21A],2.81
10,FSPDFTLRNTLKSTSEDSLVMQEC [K21M],2.86
11,FSPDFTLRNTLKSTSEDSLVGQEC [K21G],2.15
12,FSPDFTLRNTLKSTSEDSLVWQEC [K21W],2.4
13,FSPDFTLRNTLKSTSEDSLVHQEC [K21H],2.83
14,FSPDFTLRNTLKSTSEDSLVQQEC [K21Q],2.33
15,FSPDFTLRNTLKSTSEDSLVSQEC [K21S],1.9
16,FSPDFTLRNTLKSTSEDSLVVQEC [K21V],2
17,FSPDFTLRNTLKSTSEDSLVCQEC [K21C],2.69
18,FSPDFTLRNTLKSTSEDSLVRQEC [K21R],3.02
19,FSPDFTLRNTLKSTSEDSLVPQEC [K21P],1.86
20,FSPDFTLRNTLKSTSEDSLVLQEC [K21L],2.04
21,FSPDFTLRNTLKSTSEDSLVDQEC [K21D],2.23
22,FSPDFTLRNTLKSTSEDSLVFQEC [K21F],2.06

row,Variant,protein stability index
1,FSPDFTLRNTLKSTSEDSLVIQEC [K21I],2.21
2,FSPDFTLRNTLKSTSEDSLVYQEC [K21Y],2.62
3,FSPDFTLRNTLKSTSEDSLVNQEC [K21N],2.94
4,FSPDFTLRNTLKSTSEDSLVKQEE [C24E],1.69
5,FSPDFTLRNTLKSTSEDSLVKQEG [C24G],2.39
6,FSPDFTLRNTLKSTSEDSLVKQEA [C24A],2.03
7,FSPDFTLRNTLKSTSEDSLVKQEP [C24P],2.75
8,FSPDFTLRNTLKSTSEDSLVKQEH [C24H],1.85
9,FSPDFTLRNTLKSTSEDSLVKQEF [C24F],2.63
10,FSPDFTLRNTLKSTSEDSLVKQEI [C24I],1.67
11,FSPDFTLRNTLKSTSEDSLVKQEK [C24K],1.4
12,FSPDFTLRNTLKSTSEDSLVKQEL [C24L],2.03
13,FSPDFTLRNTLKSTSEDSLVKQEN [C24N],2.16
14,FSPDFTLRNTLKSTSEDSLVKQEV [C24V],2.03
15,FSPDFTLRNTLKSTSEDSLVKQES [C24S],1.85
16,FSPDFTLRNTLKSTSEDSLVKQEM [C24M],2.74
17,FSPDFTLRNTLKSTSEDSLVKQET [C24T],1.98
18,FSPDFTLRNTLKSTSEDSLVKQEW [C24W],2.18
19,FSPDFTLRNTLKSTSEDSLVKQEQ [C24Q],2.87
20,FSPDFTLRNTLKSTSEDSLVKQED [C24D],2.59
21,FSPDFTLRNTLKSTSEDSLVKQEY [C24Y],3.07
22,FSPDFTLRNTLKSTSEDSLVKQER [C24R],2.34
